Laboratory results as given in the supplement of paper PMC7125110.
Fewer inactive variants are shown than the library holds.

B1: glmS ribozyme (parent)
chain: AUAAAAGCGCCAGAACUACAGAAAUGUAGUUGACGAGGAGGAGGUUUAUCGAAUUUUCGGCGGAUGCCUCCAAA

Columns and labels:
Conditions in all cases: with glucosamine-6-phosphate
glucosamine-6-phosphate [1] = variants of: B1; assay: self-cleavage kobs at 40 uM GlcN6P; higher = faster cleavage; RNA array
In short: (§1)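 Glucosamine-6-phosphate, from 40 μM to 10 mM in HEPES/KCl/Mg(OAc)2 buffer, was flowed over sequenced MiSeq chips carrying barcoded ribozyme variants transcribed in situ by E. coli RNA polymerase. A hybridised Cy3 probe tracked the variants at 37 °C as tiles were imaged over ~14 h. kobs, kcat and KM were obtained by fitting normalised per-tile medians to exponential decays and then applying weighted Michaelis–Menten fits across concentrations.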

glucosamine-6-phosphate [2] = variants of: B1; assay: self-cleavage kobs at 160 uM GlcN6P; higher = faster cleavage; RNA array
In short: as §1

glucosamine-6-phosphate [3] = variants of: B1; assay: self-cleavage kobs at 2500 uM GlcN6P; higher = faster cleavage; RNA array
In short: as §1

glucosamine-6-phosphate [4] = variants of: B1; assay: self-cleavage kobs at 640 uM GlcN6P; higher = faster cleavage; RNA array
In short: as §1

glucosamine-6-phosphate [5] = variants of: B1; assay: self-cleavage kobs at 10000 uM GlcN6P; higher = faster cleavage; RNA array
In short: as §1

| Variant | self-cleavage kobs at 40 uM GlcN6P (glucosamine-6-phosphate [1]) | self-cleavage kobs at 160 uM GlcN6P (glucosamine-6-phosphate [2]) | self-cleavage kobs at 2500 uM GlcN6P (glucosamine-6-phosphate [3]) | self-cleavage kobs at 640 uM GlcN6P (glucosamine-6-phosphate [4]) | self-cleavage kobs at 10000 uM GlcN6P (glucosamine-6-phosphate [5]) |
| --- | --- | --- | --- | --- | --- |
| AUAAAAGCGCCAGAACUACAGAAAUGUAGUUGACGAGGAGGAGGUUUAUCGGAUUUUCGGUGGAUGCCUCCAAA [A52G C61U] | < 1e-05 s⁻¹ | < 1e-05 s⁻¹ | < 1e-05 s⁻¹ |  |  |
| AUAAAAGCGCCAGAACUACAGAAAUGUAGUUGACGAGGAGGAGGUUUAUCGCAUUUUCGACGGAUACCUCCAAA [A52C G60A G66A] | < 1e-05 s⁻¹ | < 1e-05 s⁻¹ |  | < 1e-05 s⁻¹ |  |
| AUAAAAGCGCCAGAACUACAGAAAUGUAGUUGACGAGGAGGAGGUUUAUCAAAUUUUCGGCGUAUGCCUCCAAA [G51A G63U] | < 1e-05 s⁻¹ |  |  |  | < 1e-05 s⁻¹ |
| AUAAAAGCGCCAGAACUACAGAAAUGUAGUUGACGAGGAGGAGGUUUAUCAAAUGUUCGGCGGAUGCGUCCAAA [G51A U55G C68G] | < 1e-05 s⁻¹ |  |  |  | < 1e-05 s⁻¹ |
| AUAAAAGCGCCAGAACUACAGAAAUGUAGUUGACGAGGAGGAGGUUUAUCAAAUUUUCGGCGGAGGCCUCCAAA [G51A U65G] | < 1e-05 s⁻¹ | < 1e-05 s⁻¹ |  |  | < 1e-05 s⁻¹ |
| AUAAAAGCGCCAGAACUACAGAAAUGUAGUUGACGAGGAGGAGGUUUAUCUAAUUUUCGGCGCAUGCCUCCAAA [G51U G63C] | < 1e-05 s⁻¹ |  | < 1e-05 s⁻¹ | < 1e-05 s⁻¹ | < 1e-05 s⁻¹ |
| AUAAAAGCGCCAGAACUACAGAAAUGUAGUUGACGAGGAGGAGGUUUAUCAAAUUUUCGGGGGAUGCCUCCAAA [G51A C61G] | < 1e-05 s⁻¹ | < 1e-05 s⁻¹ |  |  |  |
| AUAAAAGCGCCAGAACUACAGAAAUGUAGUUGACGAGGAGGAGGUUUAUCAAAUUUGCGGCGGAUGCCUCCAAA [G51A U57G] | < 1e-05 s⁻¹ | < 1e-05 s⁻¹ | < 1e-05 s⁻¹ |  |  |
| AUAAAAGCGCCAGAACUACAGAAAUGUAGUUGACGAGGAGGAGGUUUAUCUAAUUUUCGGCUGAUGCCUCCAAA [G51U G62U] | < 1e-05 s⁻¹ | < 1e-05 s⁻¹ |  |  | < 1e-05 s⁻¹ |
| AUAAAAGCGCCAGAACUACAGAAAUGUAGUUGACGAGGAGGAGGUUUAUCCGAUUUUCGGCGGAUGCCUCCAAA [G51C A52G] | < 1e-05 s⁻¹ | < 1e-05 s⁻¹ | < 1e-05 s⁻¹ |  | < 1e-05 s⁻¹ |
| AUAAAAGCGCCAGAACUACAGAAAUGUAGUUGACGAGGAGGAGGUUUAUCGUAUUUUUGGCGGAUGCCUCCAAA [A52U C58U] | < 1e-05 s⁻¹ | < 1e-05 s⁻¹ | < 1e-05 s⁻¹ | < 1e-05 s⁻¹ | < 1e-05 s⁻¹ |
| AUAAAAGCGCCAGAACUACAGAAAUGUAGUUGACGAGGAGGAGGUUUAUCAAAUUUUCGCCGGAUGCCUCCAAA [G51A G60C] | < 1e-05 s⁻¹ |  |  | < 1e-05 s⁻¹ |  |
| AUAAAAGCGCCAGAACUACAGAAAUGUAGUUGACGAGGAGGAGGUUUAUCCAAUAUUCGGCGGAUGCCUCCAAA [G51C U55A] | < 1e-05 s⁻¹ |  |  | < 1e-05 s⁻¹ |  |
